The values that follow come from article PMC10922510.

Experiment in all cases: BLI
(In general: BLI is a label-free optical method that tracks binding on a fibre tip over time.)

Assay [1] has as its target biotinylated human FcγRIIb extracellular domain with AviTag (human) (UniProt P31994).
Assay [2] addresses biotinylated human FcγRIIa-131H extracellular domain with AviTag (human) (UniProt P12318).
The target of assay [3] is biotinylated human FcγRIIa-131R extracellular domain with AviTag (human) (UniProt P12318).
Assay [4] deals with biotinylated human FcγRIIIa-176V extracellular domain with AviTag (human) (UniProt P08637).
UniProt P08637, sequence (P08637 17-208 F176V): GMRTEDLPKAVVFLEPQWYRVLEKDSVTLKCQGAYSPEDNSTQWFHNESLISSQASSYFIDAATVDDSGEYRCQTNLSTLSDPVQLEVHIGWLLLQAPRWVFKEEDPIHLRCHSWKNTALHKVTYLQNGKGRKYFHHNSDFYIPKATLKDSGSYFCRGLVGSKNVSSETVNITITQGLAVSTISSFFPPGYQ

UniProt P31994, sequence (P31994 43-217): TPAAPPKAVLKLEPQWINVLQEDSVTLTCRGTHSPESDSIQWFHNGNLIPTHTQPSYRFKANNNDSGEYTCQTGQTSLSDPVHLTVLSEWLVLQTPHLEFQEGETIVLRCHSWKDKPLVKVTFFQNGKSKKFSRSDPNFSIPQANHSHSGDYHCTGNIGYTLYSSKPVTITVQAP

Take “human IgG1 trastuzumab with Fc mutation P238D (antibody)”: the Kd – broadly, the constant that tells how readily two partners part at equilibrium – in assay [1] came out at 310 nM.
In the case of “human IgG1 trastuzumab with Fc mutation G236A (antibody)”, the Kd in assay [2] turned out to be 120 nM; in assay [3], 210 nM.
“human IgG1 trastuzumab, wild-type Fc (antibody)”: the Kd in assay [4] amounted to 610 nM; in assay [2], 290 nM; in assay [3], 610 nM; in assay [1] it was 360 nM.
